Measurements from patent publication US20240376224A1 (University of California, published 2024).

Assays:
Assay in all cases: BLI (Octet), table of in vitro binding affinities
c-CDCP1-Fc (Cut 2) = biological target: T1, c-CDCP1-Fc (Cut 2) (human, UniProt Q9H5V8 30-368; Q9H5V8 369-667)
T1 construct: Co-transfection of NTF and CTF-Fc plasmids; not shown: Fc domain
T1 sequence 1: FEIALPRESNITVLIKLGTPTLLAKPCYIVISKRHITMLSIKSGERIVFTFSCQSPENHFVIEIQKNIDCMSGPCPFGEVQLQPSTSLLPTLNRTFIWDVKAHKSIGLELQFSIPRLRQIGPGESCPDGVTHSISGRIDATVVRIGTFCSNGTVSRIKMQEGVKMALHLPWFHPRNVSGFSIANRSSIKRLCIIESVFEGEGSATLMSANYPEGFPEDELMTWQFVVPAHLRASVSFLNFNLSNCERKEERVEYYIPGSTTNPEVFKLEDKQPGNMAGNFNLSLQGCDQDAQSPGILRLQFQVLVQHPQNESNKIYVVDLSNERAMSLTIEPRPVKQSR
T1 sequence 2: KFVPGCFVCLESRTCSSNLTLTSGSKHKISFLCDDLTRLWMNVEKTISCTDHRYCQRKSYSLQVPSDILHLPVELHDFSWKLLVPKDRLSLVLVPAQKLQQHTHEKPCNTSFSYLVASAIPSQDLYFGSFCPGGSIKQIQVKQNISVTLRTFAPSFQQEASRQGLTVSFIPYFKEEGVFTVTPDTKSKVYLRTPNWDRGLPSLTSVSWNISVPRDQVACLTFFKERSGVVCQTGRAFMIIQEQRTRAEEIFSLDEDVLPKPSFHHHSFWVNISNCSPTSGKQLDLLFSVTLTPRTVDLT
Description: (§1) BLI experiments were performed using an Octet RED384 instrument (ForteBio). Biotinylated proteins were immobilized on a streptavidin (SA) biosensor and His-tagged proteins were immobilized on a Ni-NTA biosensor. Different concentrations of analyte in PBS pH 7.4+0.05% Tween-20+0.2% BSA (PBSTB) were used as analyte. Affinities (KDS) were calculated from a global fit (1:1) of the data using the Octet RED384 software.

c-CDCP1-Fc (Cut 1) = biological target: T2, c-CDCP1-Fc (Cut 1) (human, UniProt Q9H5V8 30-365; Q9H5V8 366-667)
T2 construct: Co-transfection of NTF and CTF-Fc plasmids; not shown: Fc domain
T2 sequence 1: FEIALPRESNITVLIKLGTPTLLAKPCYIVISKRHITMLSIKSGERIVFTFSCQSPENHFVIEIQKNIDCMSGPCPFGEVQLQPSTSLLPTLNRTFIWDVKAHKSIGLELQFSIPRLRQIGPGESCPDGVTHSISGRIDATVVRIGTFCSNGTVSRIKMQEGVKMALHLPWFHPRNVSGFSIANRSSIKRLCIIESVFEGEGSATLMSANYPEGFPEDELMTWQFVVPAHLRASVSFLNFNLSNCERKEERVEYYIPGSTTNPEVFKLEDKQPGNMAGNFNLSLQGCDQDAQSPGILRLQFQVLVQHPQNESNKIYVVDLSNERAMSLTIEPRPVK
T2 sequence 2: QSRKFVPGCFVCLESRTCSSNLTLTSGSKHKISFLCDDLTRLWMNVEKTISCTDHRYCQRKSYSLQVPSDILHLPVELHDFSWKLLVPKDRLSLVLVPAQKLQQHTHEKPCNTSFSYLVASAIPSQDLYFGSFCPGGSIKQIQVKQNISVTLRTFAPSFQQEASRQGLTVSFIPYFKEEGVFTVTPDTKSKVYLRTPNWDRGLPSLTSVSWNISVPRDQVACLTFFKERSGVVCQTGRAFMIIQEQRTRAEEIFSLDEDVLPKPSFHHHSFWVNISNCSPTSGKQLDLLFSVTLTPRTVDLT
Description: as §1

c-CDCP1-Fc (Cut 3) = biological target: T3, c-CDCP1-Fc (Cut 3) (human, UniProt Q9H5V8 30-369; Q9H5V8 370-667)
T3 construct: Co-transfection of NTF and CTF-Fc plasmids; not shown: Fc domain
T3 sequence 1: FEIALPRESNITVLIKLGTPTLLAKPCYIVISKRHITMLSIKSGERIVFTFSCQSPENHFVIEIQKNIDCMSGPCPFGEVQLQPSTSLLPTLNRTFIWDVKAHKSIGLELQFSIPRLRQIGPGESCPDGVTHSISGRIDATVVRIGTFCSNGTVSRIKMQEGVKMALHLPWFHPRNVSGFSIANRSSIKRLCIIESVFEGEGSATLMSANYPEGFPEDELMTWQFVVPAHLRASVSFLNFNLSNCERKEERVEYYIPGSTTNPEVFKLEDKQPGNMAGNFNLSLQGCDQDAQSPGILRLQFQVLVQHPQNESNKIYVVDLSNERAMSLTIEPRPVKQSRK
T3 sequence 2: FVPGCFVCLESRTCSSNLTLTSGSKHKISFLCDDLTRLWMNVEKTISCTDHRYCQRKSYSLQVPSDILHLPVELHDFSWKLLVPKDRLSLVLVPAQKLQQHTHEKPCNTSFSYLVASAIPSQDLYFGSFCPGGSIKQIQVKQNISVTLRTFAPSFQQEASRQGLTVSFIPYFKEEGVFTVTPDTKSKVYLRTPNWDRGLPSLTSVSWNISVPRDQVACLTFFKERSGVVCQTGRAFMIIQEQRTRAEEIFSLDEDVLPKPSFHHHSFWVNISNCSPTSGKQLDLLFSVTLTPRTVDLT
Description: as §1

Kd (c-CDCP1-Fc (Cut 2)): 0.37 nM
koff (c-CDCP1-Fc (Cut 2)): 0.000174 s⁻¹
kon (c-CDCP1-Fc (Cut 2)): 473000 M⁻¹ s⁻¹
Kd (c-CDCP1-Fc (Cut 1)): 0.84 nM
koff (c-CDCP1-Fc (Cut 1)): 0.000535 s⁻¹
kon (c-CDCP1-Fc (Cut 1)): 640000 M⁻¹ s⁻¹
Kd (c-CDCP1-Fc (Cut 3)): 0.15 nM
koff (c-CDCP1-Fc (Cut 3)): 7.43e-05 s⁻¹
kon (c-CDCP1-Fc (Cut 3)): 492000 M⁻¹ s⁻¹
B1: CL03 IgG (antibody, V domains shown)
VH: EVQLVESGGGLVQPGGSLRLSCAASGFNFSSYSIHWVRQAPGKGLEWVASIYPYSGSTYYADSVKGRFTISADTSKNTAYLQMNSLRAEDTAVYYCARQSHSYYSHTWWVSYGMDYWGQGTLVTVSS
VL: DIQMTQSPSSLSASVGDRVTITCRASQSVSSAVAWYQQKPGKAPKLLIYSASSLYSGVPSRFSGSRSGTDFTLTISSLQPEDFATYYCQQSGQRPITFGQGTKVEIKR
notes: also called IgG CL03
